PMC13572001, “Sequence-based artificial intelligence-guided inhibitory peptides to counteract AAV neutralizing antibodies in gene therapy” (Molecular Therapy Advances, 2026)

Test: Safety assessment after i.p. peptide mixture in mice
Conditions: positive control, same conditions, day 7
Procedure: To assess potential immunogenicity following peptide administration, we performed enzyme-linked immunosorbent assays (ELISA) to measure peptide-specific IgG responses.
(E) Detection of peptide-specific IgG in plasma by ELISA following peptide or control antigen administration.
Mice were injected (i.p.) with human-derived or viral-derived peptide mixtures, or OVA protein (InvivoGen #vac-pova). Plasma was collected at 24 h for cytokine analysis (BD #552364) and at day 7 for peptide- or OVA-specific antibody detection via direct ELISA.

B1: OVA: OVA protein (InvivoGen #vac-pova), positive control (protein, UniProt P01012 2-386, looked up)
Ovalbumin: GSIGAASMEFCFDVFKELKVHHANENIFYCPIAIMSALAMVYLGAKDSTRTQINKVVRFDKLPGFGDSIEAQCGTSVNVHSSLRDILNQITKPNDVYSFSLASRLYAEERYPILPEYLQCVKELYRGGLEPINFQTAADQARELINSWVESQTNGIIRNVLQPSSVDSQTAMVLVNAIVFKGLWEKAFKDEDTQAMPFRVTEQESKPVQMMYQIGLFRVASMASEKMKILELPFASGTMSMLVLLPDEVSGLEQLESIINFEKLTEWTSSNVMEERKIKVYLPRMKMEEKYNLTSVLMAMGITDVFSSSANLSGISSAESLKISQAVHAAHAEINEAGREVVGSAEAGVDAASVSEEFRADHPFLFCIKHIATNAVLFFGRCVSP
- OVA-specific antibody response (direct ELISA): robust antibody response
